Experimental data reported in article PMC6218473, “Recognition of host Clr-b by the inhibitory NKR-P1B receptor provides a basis for missing-self recognition” (Nature Communications, 2018).

B1: NKR-P1B tetramers (biotinylated NKR-P1B on streptavidin) [modified: biotin on the BirA tag; biotin on the BirA tag] [mouse] / Clr-b on transfected HEK293T cells [mouse] (parent)
chain 1: SAKLECPQDWLSHRDKCFHVSQVSNTWKECRIDCDKKGATLLLIQDQEELRFLLDSIKEKYNSFWIGLSYTLTDMNWKWINGTAFNSDVLKITGVTENGSCAAISGEKVTSEGCSSDNRWICQKELN
chain 2: MCVTKASLPMLSPTGSPQEVEVGKILQGKRHGTISPESCAKLYCYYGVIMVLTVAVIALSVALSATKTEQIPVNKTYAACPQNWIGVENKCFYFSEYPSNWTFAQAFCMAQEAQLARFDNQDELNFLMRYKANFDSWIGLHRESSEHPWKWTDNTEYNNTIPIRGEERFAYLNNNGISSTRIYSLRMWICSKLNSYSLHCQTPFFPS

Variants of: B1
Experiment: flow cytometry on cells (PE-tetramer staining)
Details: with Clr-b on transfected HEK293T cells [mouse]; HEK293T cells stained 48 h after transfection with Clr-b pIRES2-EGFP; parent: 3.14e+03
chain 1 SAKLECPQDWLSHRDKCFHVSQVSNTWKECRIDCDKKGATLLLIQDQEELRFLLDSIKEKYNSFWIGLSYTLTAMNWKWINGTAFNSDVLKITGVTENGSCAAISGEKVTSEGCSSDNRWICQKELN [chain 1 D74A] was tested, and the response was 212 MFI. With chain 1 SAKLECPQDWLSHRDKCFHVSQVSNTWKECRIDCDKKGATLLLIQDQEELRFLLDSIKEKYNSFWIGLSYTLTDMNWKWINGTAFNSDVLKITGVTENGSCAAISGEKVTSEGCSSANRWICQKELN [chain 1 D117A] the response was 232 MFI. In the case of chain 1 SAKLECPQDWLSHRDKCFHVSQVSNTWKECRIDCDKKGATLLLIQDQEELRFLLDSIKEKYNSFWIGLSYTLTDMNWKWINGTAFNSDVLKITGVTENGSCAAISGEKVTSAGCSSDNRWICQKELN [chain 1 E112A], the response is reported as 269 MFI. With chain 1 SAKLECPQDWLSHRDKCFHVSQVSATWKECRIDCDKKGATLLLIQDQEELRFLLDSIKEKYNSFWIGLSYTLTDMNWKWINGTAFNSDVLKITGVTENGSCAAISGEKVTSEGCSSDNRWICQKELN [chain 1 N25A] the response was 5680 MFI. Work on chain 1 SAKLECPQDWLSHRDKCFHVSQVSNTWKECRIDCDKKGATLLLIQDQEELRFLLDSIKEKYASFWIGLSYTLTDMNWKWINGTAFNSDVLKITGVTENGSCAAISGEKVTSEGCSSDNRWICQKELN [chain 1 N62A] yielded a response of 4880 MFI. For chain 1 SAKLECPQDWLSHRDKCFHVSQVSNTWKECRIDCDKKGATLLLIQDQEELRFLLDSIKEKYNSFWIGLSYTLTDMNWKWINGTAFNSDVLKITGVTENGSCAAISGEKVTSEGCSSDARWICQKELN [chain 1 N118A], the response was 213 MFI. In the case of chain 1 SAKLECPQDWLSHRDKCFHVSQVSNTWKECRIDCDKKGATLLLIQDQEELRFLLDSIKEKYNSFWIGLSYTLTDMNWKWINGTAFNSDVLKITGVTENGSCAAISGEKVTSEGCSSDNAWICQKELN [chain 1 R119A], the response is reported as 238 MFI. With chain 1 SAKLECPQDWLSHRDKCFHVSQVSNTWKECRIDCDKKGATLLLIQDQEELRFLLDSIKEKYNSFWIGLSYTLTDMNWKWINGTAFNSDVLKITGVTENGACAAISGEKVTSEGCSSDNRWICQKELN [chain 1 S100A] the response was 217 MFI. In the case of chain 1 SAKLECPQDWLSHRDKCFHVSQVSNTWKECRIDCDKKGATLLLIQDQEELRFLLDSIKEKYNSFWIGLSYTLTDMNWKWINGTAFNSDVLKITGVTENGSCAAISGEKVTAEGCSSDNRWICQKELN [chain 1 S111A], the response is reported as 229 MFI. chain 1 SAKLECPQDWLSHRDKCFHVSQVSNTWKECRIDCDKKGATLLLIQDQEELRFLLDSIKEKYNSFWIGLSYTLTDMNWKWINGTAFNSDVLKITGVTENGSCAAISGEKVTSEGCASDNRWICQKELN [chain 1 S115A] was tested, and the response was 178 MFI. chain 1 SAKLECPQDWLSHRDKCFHVSQVSNTWKECRIDCDKKGATLLLIQDQEELRFLLDSIKEKYNSFWIGLSYTLTDMNWKWINGTAFNSDVLKITGVTENGSCAAISGEKVTSEGCSADNRWICQKELN [chain 1 S116A] showed a response of 211 MFI. chain 1 SAKLECPQDWLSHRDKCFHVSQVSNTWKECRIDCDKKGATLLLIQDQEELRFLLDSIKEKYNSFWIGLSYTLTDMNWKWINGTAFNSDVLKITGVTENGSCAAISGEKVTSEGCSRDNRWICQKELN [chain 1 S116R] was tested, and the response was 198 MFI. Work on chain 1 SAKLECPQDWLSHRDKCFHVSQVSNTWKECRIDCDKKGATLLLIQDQEELRFLLDSIKEKYNSFWIGLSYTLTDMNWKWINGTAFNSDVLKITGVAENGSCAAISGEKVTSEGCSSDNRWICQKELN [chain 1 T96A] yielded a response of 208 MFI. In the case of chain 1 SAKLECPQDWLSHRDKCFHVSQVSNTWKECRIDCDKKGATLLLIQDQEELRFLLDSIKEKYNSFWIGLSYTLTDMNWKWINGTAFNSDVLKITGATENGSCAAISGEKVTSEGCSSDNRWICQKELN [chain 1 V95A], the response is reported as 5900 MFI. chain 1 SAKLECPQDWLSHRDKCFHVSQVSNTWKECRIDCDKKGATLLLIQDQEELRFLLDSIKEKANSFWIGLSYTLTDMNWKWINGTAFNSDVLKITGVTENGSCAAISGEKVTSEGCSSDNRWICQKELN [chain 1 Y61A] was tested, and the response was 346 MFI.
